# According to patent publication US12467929:
# Columns and labels:
# [1] = target: recombinant UBE3A protein (Homo sapiens (Human)) (UniProt Q05086); test: 3-step Simoa; capture GTX; UBE3A 1 ng/ml
# [2] = target: recombinant UBE3A protein (Homo sapiens (Human)) (UniProt Q05086); test: 2-step Simoa; capture MS 2F6; UBE3A 0.01 ng/ml
# [3] = target: recombinant UBE3A protein (Homo sapiens (Human)) (UniProt Q05086); test: 2-step Simoa; capture GTX; UBE3A 1 ng/ml
# [4] = target: recombinant UBE3A protein (Homo sapiens (Human)) (UniProt Q05086); test: 3-step Simoa; capture MS 2F6; UBE3A 1 ng/ml
# [5] = target: recombinant UBE3A protein (Homo sapiens (Human)) (UniProt Q05086); test: 2-step Simoa; capture MS 2F6; UBE3A 10 ng/ml
# [6] = target: recombinant UBE3A protein (Homo sapiens (Human)) (UniProt Q05086); test: 3-step Simoa; capture GTX; UBE3A 0.1 ng/ml
# [7] = target: recombinant UBE3A protein (Homo sapiens (Human)) (UniProt Q05086); test: 2-step Simoa; capture GTX; UBE3A 0.01 ng/ml
# [8] = target: recombinant UBE3A protein (Homo sapiens (Human)) (UniProt Q05086); test: 2-step Simoa; capture MS 2F6; UBE3A 1 ng/ml
# [9] = target: recombinant UBE3A protein (Homo sapiens (Human)) (UniProt Q05086); test: 3-step Simoa; capture Novus; UBE3A 1 ng/ml
# [10] = target: recombinant UBE3A protein (Homo sapiens (Human)) (UniProt Q05086); test: 3-step Simoa; capture GTX; UBE3A 0.01 ng/ml
# [11] = target: recombinant UBE3A protein (Homo sapiens (Human)) (UniProt Q05086); test: 2-step Simoa; capture Novus; UBE3A 1 ng/ml
# [12] = target: recombinant UBE3A protein (Homo sapiens (Human)) (UniProt Q05086); test: 3-step Simoa; capture Novus; UBE3A 0.01 ng/ml
# [13] = target: recombinant UBE3A protein (Homo sapiens (Human)) (UniProt Q05086); test: 3-step Simoa; capture Novus; UBE3A 0.1 ng/ml
# [14] = target: recombinant UBE3A protein (Homo sapiens (Human)) (UniProt Q05086); test: 2-step Simoa; capture Novus; UBE3A 0.1 ng/ml
# [15] = target: recombinant UBE3A protein (Homo sapiens (Human)) (UniProt Q05086); test: 2-step Simoa; capture MS 2F6; UBE3A 0.1 ng/ml
# [16] = target: recombinant UBE3A protein (Homo sapiens (Human)) (UniProt Q05086); test: 2-step Simoa; capture GTX; UBE3A 10 ng/ml
# [17] = target: recombinant UBE3A protein (Homo sapiens (Human)) (UniProt Q05086); test: 2-step Simoa; capture Novus; UBE3A 10 ng/ml
# [18] = target: recombinant UBE3A protein (Homo sapiens (Human)) (UniProt Q05086); test: 3-step Simoa; capture GTX; UBE3A 10 ng/ml
# [19] = target: recombinant UBE3A protein (Homo sapiens (Human)) (UniProt Q05086); test: 3-step Simoa; capture MS 2F6; UBE3A 10 ng/ml
# [20] = target: recombinant UBE3A protein (Homo sapiens (Human)) (UniProt Q05086); test: 2-step Simoa; capture Novus; UBE3A 0.01 ng/ml
# [21] = target: recombinant UBE3A protein (Homo sapiens (Human)) (UniProt Q05086); test: 3-step Simoa; capture MS 2F6; UBE3A 0.1 ng/ml
# [22] = target: recombinant UBE3A protein (Homo sapiens (Human)) (UniProt Q05086); test: 3-step Simoa; capture Novus; UBE3A 10 ng/ml
# UniProt Q05086, sequence (Q05086 whole entry): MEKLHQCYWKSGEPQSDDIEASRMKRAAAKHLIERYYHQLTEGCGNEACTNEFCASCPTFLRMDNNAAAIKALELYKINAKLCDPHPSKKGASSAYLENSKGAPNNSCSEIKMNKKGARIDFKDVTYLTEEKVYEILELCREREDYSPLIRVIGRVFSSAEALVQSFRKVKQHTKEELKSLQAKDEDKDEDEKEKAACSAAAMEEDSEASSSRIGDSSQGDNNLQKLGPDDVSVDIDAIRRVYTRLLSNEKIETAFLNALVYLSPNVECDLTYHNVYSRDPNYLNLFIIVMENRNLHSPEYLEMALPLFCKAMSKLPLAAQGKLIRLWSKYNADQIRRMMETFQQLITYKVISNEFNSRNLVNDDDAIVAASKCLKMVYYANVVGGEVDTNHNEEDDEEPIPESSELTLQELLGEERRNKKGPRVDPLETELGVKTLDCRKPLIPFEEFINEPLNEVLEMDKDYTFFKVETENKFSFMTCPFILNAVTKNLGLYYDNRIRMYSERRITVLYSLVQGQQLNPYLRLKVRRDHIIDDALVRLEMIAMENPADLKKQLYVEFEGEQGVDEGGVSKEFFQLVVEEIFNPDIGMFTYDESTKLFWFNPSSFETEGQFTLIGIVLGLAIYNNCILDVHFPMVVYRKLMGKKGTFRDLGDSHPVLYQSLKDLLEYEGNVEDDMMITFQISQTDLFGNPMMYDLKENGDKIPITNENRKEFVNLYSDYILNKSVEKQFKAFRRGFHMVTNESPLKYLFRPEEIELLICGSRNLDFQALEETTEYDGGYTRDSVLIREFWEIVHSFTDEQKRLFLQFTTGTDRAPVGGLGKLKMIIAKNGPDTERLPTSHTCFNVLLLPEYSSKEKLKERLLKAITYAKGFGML
substance,measurement,setting,value
GTX101092 (GeneTex) (antibody),AEB1,[1],0.0243
same,AEB2,[1],0.0204
same,Ave AEB,[1],0.0224
same,Signal to Background,[1],1.05
same,AEB1,[2],0.0481
same,AEB2,[2],0.0445
same,Ave AEB,[2],0.0463
same,Signal to Background,[2],0.69
same,AEB1,[3],0.0504
same,AEB2,[3],0.053
same,Ave AEB,[3],0.0517
same,Signal to Background,[3],1.02
same,AEB1,[4],0.0178
same,AEB2,[4],0.0198
same,Ave AEB,[4],0.0188
same,Signal to Background,[4],1.01
same,AEB1,[5],0.0412
same,AEB2,[5],0.0418
same,Ave AEB,[5],0.0415
same,Signal to Background,[5],0.62
same,AEB1,[6],0.0192
same,AEB2,[6],0.0198
same,Ave AEB,[6],0.0195
same,Signal to Background,[6],0.91
same,AEB1,[7],0.0483
same,AEB2,[7],0.0494
same,Ave AEB,[7],0.0489
same,Signal to Background,[7],0.97
same,AEB1,[8],0.0418
same,AEB2,[8],0.0409
same,Ave AEB,[8],0.0413
same,Signal to Background,[8],0.62
same,AEB1,[9],0.0264
same,AEB2,[9],0.0248
same,Ave AEB,[9],0.0256
same,Signal to Background,[9],1.14
same,AEB1,[10],0.019
same,AEB2,[10],0.021
same,Ave AEB,[10],0.02
same,Signal to Background,[10],0.94
same,AEB1,[11],0.0503
same,AEB2,[11],0.0488
same,Ave AEB,[11],0.0496
same,Signal to Background,[11],0.99
same,AEB1,[12],0.0217
same,AEB2,[12],0.0245
same,Ave AEB,[12],0.0231
same,Signal to Background,[12],1.03
same,AEB1,[13],0.0223
same,AEB2,[13],0.0228
same,Ave AEB,[13],0.0225
same,Signal to Background,[13],1
same,AEB1,[14],0.0516
same,AEB2,[14],0.0515
same,Ave AEB,[14],0.0516
same,Signal to Background,[14],1.03
same,AEB1,[15],0.0426
same,AEB2,[15],0.0425
same,Ave AEB,[15],0.0426
same,Signal to Background,[15],0.64
same,AEB1,[16],0.0957
same,AEB2,[16],0.0942
same,Ave AEB,[16],0.095
same,Signal to Background,[16],1.88
same,AEB1,[17],0.0616
same,AEB2,[17],0.0585
same,Ave AEB,[17],0.0601
same,Signal to Background,[17],1.2
same,AEB1,[18],0.0337
same,AEB2,[18],0.034
same,Ave AEB,[18],0.0339
same,Signal to Background,[18],1.59
same,AEB1,[19],0.0251
same,AEB2,[19],0.0292
same,Ave AEB,[19],0.0271
same,Signal to Background,[19],1.45
same,AEB1,[20],0.0531
same,AEB2,[20],0.0522
same,Ave AEB,[20],0.0527
same,Signal to Background,[20],1.05
same,AEB1,[21],0.017
same,AEB2,[21],0.0184
same,Ave AEB,[21],0.0177
same,Signal to Background,[21],0.95
same,AEB1,[22],0.0258
same,AEB2,[22],0.0245
same,Ave AEB,[22],0.0252
same,Signal to Background,[22],1.12
